{
  "source": "the RNAGym collection of RNA variant scans (doi:10.1093/molbev/msab373)",
  "parents": {"B1": {"name": "Azoarcus group I ribozyme (parent)", "chain": "GUGCCUUGCGCCGGGAAACCACGCAAGGGAUGGUGUCAAAUUCGGCGAAACCUAAGCGCCCGCCCGGGCGUAUGGCAACGCCGAGCCAAGCUUCGGCGCCUGCGCCGAUGAAGGUGUAGAGACUAGACGGCACCCACCUAAGGCAAACGCUAUGGUGAAGGCAUAGUCCAGGGAGUGGCGAAAGUCACACAAACCGG"}},
  "data": [
    {"variants_of": "B1", "assay": "reverse-splicing fitness (ratio to wild type); higher = more active; in vitro selection; Mg2+ level not given", "how_it_was_run": "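An in vitro group I ribozyme library with randomized positions was T7-transcribed and gel-purified. In triplicate, 10 pmol RNA in EPPS pH 7.5 was reacted with 50 pmoles of a 30-nt RNA substrate for 1 h at 37 °C across several added MgCl2 levels (1–48 mM), then stopped with EDTA. Products were reverse transcribed from a substrate-complementary primer, PCR-amplified and sequenced (HiSeq 4000). Fitness is a variant's read proportion after selection over that before, normalised to wild type.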", "values": [
      {"variant": "C82A A111G A120G C150A C169U U176C", "reverse-splicing fitness": 0.0219},
      {"variant": "C82A A111G A120U A145C C169A U176G", "reverse-splicing fitness": 0.00163},
      {"variant": "C82A A111G A120U A145C C169A U176A", "reverse-splicing fitness": 0.00258},
      {"variant": "C82A A111G A120U A145C C169A U176C", "reverse-splicing fitness": 0.00231},
      {"variant": "C82A A111G A120G A145C C169A", "reverse-splicing fitness": 0.00912},
      {"variant": "C82A A111G A120G A145C C169U", "reverse-splicing fitness": 0.0103},
      {"variant": "C82A A111G A120G A145C C169G", "reverse-splicing fitness": 0.0122},
      {"variant": "C82A A111G A120G A145G U176A", "reverse-splicing fitness": 0.0128},
      {"variant": "C82A A111G A120G A145G U176C", "reverse-splicing fitness": 0.0205},
      {"variant": "C82A A111G A120G A145G U176G", "reverse-splicing fitness": 0.00638},
      {"variant": "C82A A111G A120G A145U C150U U176G", "reverse-splicing fitness": 0.00595},
      {"variant": "C82A A111G A120G A145U C150U U176A", "reverse-splicing fitness": 0.00996},
      {"variant": "C82A A111G A120G A145U C150U U176C", "reverse-splicing fitness": 0.014},
      {"variant": "C82A A111G A120G A145C U176A", "reverse-splicing fitness": 0.0113},
      {"variant": "C82A A111G A120G A145C U176G", "reverse-splicing fitness": 0.00516},
      {"variant": "C82A A111G A120G A145C U176C", "reverse-splicing fitness": 0.0105},
      {"variant": "C82A A111G A120G A145G C169A U176C", "reverse-splicing fitness": 0.0254},
      {"variant": "C82A A111G A120G A145G C169A U176G", "reverse-splicing fitness": 0.00461},
      {"variant": "C82A A111G A120G A145G C169A U176A", "reverse-splicing fitness": 0.0226},
      {"variant": "C82A A111G A120G A145U C150U C169U", "reverse-splicing fitness": 0.00852},
      {"variant": "C82A A111G A120G A145U C150U C169G", "reverse-splicing fitness": 0.0104},
      {"variant": "C82A A111G A120G A145U C150U C169A", "reverse-splicing fitness": 0.0103},
      {"variant": "C82A A111G A120U A145C C150U C169A", "reverse-splicing fitness": 0.00248},
      {"variant": "C82A A111G A120U A145C C150U C169G", "reverse-splicing fitness": 0.00298},
      {"variant": "C82A A111G A120U A145C C150U C169U", "reverse-splicing fitness": 0.00308},
      {"variant": "C82A A111G A120G A145C C150G C169G U176C", "reverse-splicing fitness": 0.00788},
      {"variant": "C82A A111G A120G A145C C150G C169G U176G", "reverse-splicing fitness": 0.0049},
      {"variant": "C82A A111G A120G A145C C150G C169G U176A", "reverse-splicing fitness": 0.00955},
      {"variant": "C82A A111G A120G A145C C150G C169A U176C", "reverse-splicing fitness": 0.00743},
      {"variant": "C82A A111G A120G A145C C150G C169A U176A", "reverse-splicing fitness": 0.00923},
      {"variant": "C82A A111G A120G A145C C150G C169A U176G", "reverse-splicing fitness": 0.00564},
      {"variant": "C82A A111G A120G A145G C150G", "reverse-splicing fitness": 0.00769},
      {"variant": "C82A A111G A120G A145G C150A", "reverse-splicing fitness": 0.00972},
      {"variant": "C82A A111G A120G A145G C150U", "reverse-splicing fitness": 0.0145},
      {"variant": "C82A A111G A120U A145C U176A", "reverse-splicing fitness": 0.00841},
      {"variant": "C82A A111G A120U A145C U176G", "reverse-splicing fitness": 0.00284},
      {"variant": "C82A A111G A120U A145C U176C", "reverse-splicing fitness": 0.0111},
      {"variant": "C82A A111G A120G C150U U176G", "reverse-splicing fitness": 0.00781},
      {"variant": "C82A A111G A120G C150U U176C", "reverse-splicing fitness": 0.0156},
      {"variant": "C82A A111G A120G C150U U176A", "reverse-splicing fitness": 0.0108},
      {"variant": "C82A A111G A120G A145U C150A C169U U176G", "reverse-splicing fitness": 0.00457},
      {"variant": "C82A A111G A120G A145U C150A C169U U176C", "reverse-splicing fitness": 0.0157},
      {"variant": "C82A A111G A120G A145U C150A C169U U176A", "reverse-splicing fitness": 0.0222},
      {"variant": "C82A A111G A120U A145G C150A U176C", "reverse-splicing fitness": 0.00808},
      {"variant": "C82A A111G A120U A145G C150A U176G", "reverse-splicing fitness": 0.00419},
      {"variant": "C82A A111G A120U A145G C150A U176A", "reverse-splicing fitness": 0.00782},
      {"variant": "C82A A111G A120G A145G C150U U176G", "reverse-splicing fitness": 0.00788},
      {"variant": "C82A A111G A120G A145G C150U U176C", "reverse-splicing fitness": 0.0182},
      {"variant": "C82A A111G A120G A145G C150U U176A", "reverse-splicing fitness": 0.00945},
      {"variant": "C82A A111G A120U A145G C150A C169A", "reverse-splicing fitness": 0.00676},
      {"variant": "C82A A111G A120U A145G C150A C169U", "reverse-splicing fitness": 0.00455},
      {"variant": "C82A A111G A120U A145G C150A C169G", "reverse-splicing fitness": 0.00666},
      {"variant": "C82A A111G A120G A145G C150U C169U U176C", "reverse-splicing fitness": 0.0165},
      {"variant": "C82A A111G A120G A145G C150U C169U U176A", "reverse-splicing fitness": 0.0182},
      {"variant": "C82A A111G A120G A145G C150U C169U U176G", "reverse-splicing fitness": 0.00632},
      {"variant": "C82A A111G A120U A145C C150A C169G U176A", "reverse-splicing fitness": 0.00315},
      {"variant": "C82A A111G A120U A145C C150A C169G U176C", "reverse-splicing fitness": 0.00235},
      {"variant": "C82A A111G A120U A145C C150A C169G U176G", "reverse-splicing fitness": 0.00149},
      {"variant": "C82A A111G A120G C150G C169G U176A", "reverse-splicing fitness": 0.00689},
      {"variant": "C82A A111G A120G C150G C169G U176G", "reverse-splicing fitness": 0.00489},
      {"variant": "C82A A111G A120G C150G C169G U176C", "reverse-splicing fitness": 0.00515},
      {"variant": "C82A A111G A120G A145U C150G C169G", "reverse-splicing fitness": 0.00677},
      {"variant": "C82A A111G A120G A145U C150G C169A", "reverse-splicing fitness": 0.00989},
      {"variant": "C82A A111G A120G A145U C150G C169U", "reverse-splicing fitness": 0.00867},
      {"variant": "C82A A111G A120G C150G U176G", "reverse-splicing fitness": 0.00346},
      {"variant": "C82A A111G A120G C150G U176C", "reverse-splicing fitness": 0.00974},
      {"variant": "C82A A111G A120G C150G U176A", "reverse-splicing fitness": 0.0058},
      {"variant": "C82A A111G A120U A145G C150G C169A", "reverse-splicing fitness": 0.00837},
      {"variant": "C82A A111G A120U A145C", "reverse-splicing fitness": 0.027},
      {"variant": "C82A A111G A120U A145G", "reverse-splicing fitness": 0.0318},
      {"variant": "C82A A111G A120G C150A C169G U176C", "reverse-splicing fitness": 0.0245},
      {"variant": "C82A A111G A120G C150A C169G U176G", "reverse-splicing fitness": 0.00613},
      {"variant": "C82A A111G A120G C150A C169G U176A", "reverse-splicing fitness": 0.0211},
      {"variant": "C82A A111G A120G A145G C150G C169U U176C", "reverse-splicing fitness": 0.0133},
      {"variant": "C82A A111G A120G A145G C150G C169U U176A", "reverse-splicing fitness": 0.0118},
      {"variant": "C82A A111G A120G A145G C150G C169U U176G", "reverse-splicing fitness": 0.00793},
      {"variant": "C82A A111G A120U A145G C150G C169A U176A", "reverse-splicing fitness": 0.0108},
      {"variant": "C82A A111G A120U A145C C150U C169A U176C", "reverse-splicing fitness": 0.00215},
      {"variant": "C82A A111G A120U A145C C150U C169A U176A", "reverse-splicing fitness": 0.00228},
      {"variant": "C82A A111G A120U A145C C150U C169A U176G", "reverse-splicing fitness": 0.00215},
      {"variant": "C82A A111G A120G C150U C169G U176G", "reverse-splicing fitness": 0.0061},
      {"variant": "C82A A111G A120G C150U C169G U176C", "reverse-splicing fitness": 0.0192},
      {"variant": "C82A A111G A120G C150U C169G U176A", "reverse-splicing fitness": 0.0166}
    ]}
  ]
}
